The values below come from article PMC9633819 (Nature Communications, 2022).

For data set [1], the target named is neurofascin 155^Ig1–6 (residues 25–633), high mannose glycans (mouse). The data set is described as follows: SEC-MALS + other: SAXS; dimer to monomers; estimate from the concentration dependence of peak position, molecular weight and Rg; 25 mM HEPES pH 7.5, 150 mM NaCl.
The target of data set [2] is contactin 1^Ig1–6 HM, C-terminally biotinylated SPR ligand (mouse) (UniProt P12960). Put plainly: SPR; SPR imaging (MX96 SPRi); C-terminally biotinylated contactin 1 ligands spotted on a P-STREP SensEye chip, neurofascin 155^Ig1–6 as analyte; 25 °C; 25 mM HEPES pH 7.5, 150 mM NaCl with 0.005% Tween-20; equilibrium response fitted with a 1:1 Langmuir model.
The target in data set [3] is T1, contactin 1^fe HM (full ectodomain, residues 21–996), C-terminally biotinylated SPR ligand (mouse, UniProt P12960 21-996, biotin on the C-terminal biotin acceptor peptide; N-linked high mannose glycans).
T1 chain: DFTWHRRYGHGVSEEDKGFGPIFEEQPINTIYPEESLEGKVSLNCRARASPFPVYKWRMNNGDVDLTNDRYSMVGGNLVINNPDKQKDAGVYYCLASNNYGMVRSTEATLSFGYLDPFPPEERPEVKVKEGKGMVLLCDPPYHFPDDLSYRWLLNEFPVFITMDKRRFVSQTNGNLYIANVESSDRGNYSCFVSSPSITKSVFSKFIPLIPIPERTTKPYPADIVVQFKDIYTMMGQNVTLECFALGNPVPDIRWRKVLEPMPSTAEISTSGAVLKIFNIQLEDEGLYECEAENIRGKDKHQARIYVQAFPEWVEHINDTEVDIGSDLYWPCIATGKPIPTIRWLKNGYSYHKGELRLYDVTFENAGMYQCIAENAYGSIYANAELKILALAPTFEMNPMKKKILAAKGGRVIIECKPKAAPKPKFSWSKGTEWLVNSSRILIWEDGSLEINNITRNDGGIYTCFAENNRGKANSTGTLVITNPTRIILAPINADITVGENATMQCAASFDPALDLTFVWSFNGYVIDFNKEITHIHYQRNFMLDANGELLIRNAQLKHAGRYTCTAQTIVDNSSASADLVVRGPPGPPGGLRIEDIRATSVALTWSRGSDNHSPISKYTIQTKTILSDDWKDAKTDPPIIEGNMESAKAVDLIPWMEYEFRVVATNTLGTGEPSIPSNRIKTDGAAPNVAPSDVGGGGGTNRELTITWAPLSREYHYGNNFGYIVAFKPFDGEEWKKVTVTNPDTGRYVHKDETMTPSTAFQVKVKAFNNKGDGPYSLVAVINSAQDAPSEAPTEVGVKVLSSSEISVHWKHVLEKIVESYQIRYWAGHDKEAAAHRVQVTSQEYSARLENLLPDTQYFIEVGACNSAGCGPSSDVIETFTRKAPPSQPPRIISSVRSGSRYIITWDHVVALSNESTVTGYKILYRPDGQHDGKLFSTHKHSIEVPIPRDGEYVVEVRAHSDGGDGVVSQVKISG
Put plainly: SPR.

The nature of the next data set: SAXS Kratky plots. The following applies: glycan changed form; control: contactin 1 with complex glycans.
A short description of data set [4]: K562 cell clustering, co-clustering ratio. Conditions: glycan changed form; control: untreated contactin 1 and neurofascin 155 K562 cells.
Data set [5] in a line: K562 cell clustering index. The following applies: glycan changed form; control: untreated contactin 1 K562 cells.

Values joined by “and” are separate entries in the source; they are usually repeats but may differ in a detail not shown here. Equal entries are not always repeated.

B1: neurofascin 155^Ig1–6 (residues 25–633), high mannose glycans (domain or fragment)
chain: IEIPMDLTQPPTITKQSVKDHIVDPRDNILIECEAKGNPAPSFHWTRNSRFFNIAKDPRVSMRRRSGTLVIDFRSGGRPEEYEGEYQCFARNKFGTALSNRIRLQVSKSPLWPKENLDPVVVQEGAPLTLQCNPPPGLPSPVIFWMSSSMEPITQDKRVSQGHNGDLYFSNVMLQDMQTDYSCNARFHFTHTIQQKNPFTLKVLTNNPYNDSSLRNHPDIYSARGVAERTPSFMYPQGTSSSQMVLRGMDLLLECIASGVPTPDIAWYKKGGDLPSNKAKFENFNKALRITNVSEEDSGEYFCLASNKMGSIRHTISVRVKAAPYWLDEPKNLILAPGEDGRLVCRANGNPKPTVQWMVNGEPLQSAPPNPNREVAGDTIIFRDTQISSRAVYQCNTSNEHGYLLANAFVSVLDVPPRMLSARNQLIRVILYNRTRLDCPFFGSPIPTLRWFKNGQGSNLDGGNYHVYENGSLEIKMIRKEDQGIYTCVATNILGKAENQVRLEVKDPTRIYRMPEDQVAKRGTTVQLECRVKHDPSLKLTVSWLKDDEPLYIGNRMKKEDDSLTIFGVAERDQGSYTCMASTELDQDLAKAYLTVLADQATPTNRLAA
modifications: N-linked high mannose glycans (glycans at Asn316, Asn420, Asn457 and Asn494 are named)
For the molecule B1, the Kd in data set [1] is 5000 to 30000 nM; in data set [2], 220 nM; in data set [3], 270 nM and 310 nM.

B2: contactin 1: high mannose glycans (GnTI- HEK293) (protein)
parent chain: MKMPLLVSHLLLISLTSCLGDFTWHRRYGHGVSEEDKGFGPIFEEQPINTIYPEESLEGKVSLNCRARASPFPVYKWRMNNGDVDLTNDRYSMVGGNLVINNPDKQKDAGVYYCLASNNYGMVRSTEATLSFGYLDPFPPEERPEVKVKEGKGMVLLCDPPYHFPDDLSYRWLLNEFPVFITMDKRRFVSQTNGNLYIANVESSDRGNYSCFVSSPSITKSVFSKFIPLIPIPERTTKPYPADIVVQFKDIYTMMGQNVTLECFALGNPVPDIRWRKVLEPMPSTAEISTSGAVLKIFNIQLEDEGLYECEAENIRGKDKHQARIYVQAFPEWVEHINDTEVDIGSDLYWPCIATGKPIPTIRWLKNGYSYHKGELRLYDVTFENAGMYQCIAENAYGSIYANAELKILALAPTFEMNPMKKKILAAKGGRVIIECKPKAAPKPKFSWSKGTEWLVNSSRILIWEDGSLEINNITRNDGGIYTCFAENNRGKANSTGTLVITNPTRIILAPINADITVGENATMQCAASFDPALDLTFVWSFNGYVIDFNKEITHIHYQRNFMLDANGELLIRNAQLKHAGRYTCTAQTIVDNSSASADLVVRGPPGPPGGLRIEDIRATSVALTWSRGSDNHSPISKYTIQTKTILSDDWKDAKTDPPIIEGNMESAKAVDLIPWMEYEFRVVATNTLGTGEPSIPSNRIKTDGAAPNVAPSDVGGGGGTNRELTITWAPLSREYHYGNNFGYIVAFKPFDGEEWKKVTVTNPDTGRYVHKDETMTPSTAFQVKVKAFNNKGDGPYSLVAVINSAQDAPSEAPTEVGVKVLSSSEISVHWKHVLEKIVESYQIRYWAGHDKEAAAHRVQVTSQEYSARLENLLPDTQYFIEVGACNSAGCGPSSDVIETFTRKAPPSQPPRIISSVRSGSRYIITWDHVVALSNESTVTGYKILYRPDGQHDGKLFSTHKHSIEVPIPRDGEYVVEVRAHSDGGDGVVSQVKISGVSTLSSSLLSLLLPSLGFLVYSEF
As to B2, in “SAXS Kratky plots”, the structure_or_conformation result was “no change”.

B3: contactin 1: kifunensine on both cell types (protein)
parent chain: B2 parent chain
In the case of B3, the “other: heterophilic cell co-clustering” value in data set [4] is reported as “no change”.

B4: contactin 1: kifunensine (protein)
parent chain: B2 parent chain
With B4, the “other: homophilic cell clustering” value in data set [5] is recorded as “no change”.
